Consider one molecule from PMC8191757, “m6A RNA methylation of major satellite repeat transcripts facilitates chromatin association and RNA:DNA hybrid formation in mouse heterochromatin”.

The target in this data set is T1, NLS-HBD(H1)-eGFP (mouse, UniProt O70338 27-76).
T1 chain: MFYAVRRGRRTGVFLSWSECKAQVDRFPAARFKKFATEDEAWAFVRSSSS
The data set is described as follows: EMSA; comparable to unmodified; EMSA: 20 nM hybrid, 125 nM-0.5 uM protein, 20 mM Tris-HCl pH 8.0, 150 mM NaCl, 5 mM MgCl2, 12.5% glycerol, 0.05% Triton X-100, 1 mM DTT, 1 h at 4 C. To be noted: protein: recombinant, tags: N-terminal NLS PKKKRKV, 6xHis-MBP cleaved by AcTEV, label: 5'-Cy5 on RNA, blunt. (In general: Mobility shift assays separate free from complexed probe on a gel.)

B1: MSR SR2 RNA:DNA hybrid, m6A (DNA:RNA)
RNA: UUUUCCACCUUUUUCAGUUUUCCUCGCCAUAUUUC
DNA: GAAATATGGCGAGGAAAACTGAAAAAGGTGGAAAA
modifications: m6A at RNA positions 7, 16, 29, 31
Take B1: the binding result is reported as “binds”.
